Assay results as given in article PMC11065875.

Tested on: H-24 (His-ELP) (synthetic; E. coli BL21 expressed)
Assay: coacervate partitioning, fluorimetry
Settings: EMSA in 2.5% agarose, 30 min incubation, 0.5 uM ssDNA1, fusions in 1x PBS (or 50% artificial fluids) at RT, His-ELPs at RT in 37 mM citric acid/126 mM Na2HPO4 …; for binding signal (% in coacervate): 60 C (LLPS 1)

Work on “GGGTTCCTTGCTAGCCAGAGAGCTCCCGGGCTCGACCTGGTCTAACAAGAGAGACC [ATTO488-ssDNA1]” yielded a binding signal (% in coacervate) (pH 6.5, artificial nasal swab fluid) of 80, a binding signal (% in coacervate) (pH 6.5, artificial saliva) of 70 and a binding signal (% in coacervate) (pH 6.5, buffer) of 60. The binding signal (% in protein-poor supernatant) (pH 8, 300 mM NaCl, 30 C (LLPS 2)) was > 90.
